From paper PMC8216552
Values joined by “and” are separate entries in the source; they are usually repeats but may differ in a detail not shown here. Equal values may be shown once.

What was measured:
[1] = biological target: stabilized soluble CON-S envelope trimer (stabilized CON-S SOSIP gp140) (HIV-1 (group M consensus)); assay: negative stain electron microscopy; chimeric CON-S DS.SOSIP-664 trimers with a 10-fold molar excess of Fab, 1 h at room temperature; uranyl formate stain; 2D classes and 3D reconstruction (RELION)
[2] = biological target: stabilized soluble CON-S envelope trimer (stabilized CON-S SOSIP gp140) (HIV-1 (group M consensus))
[3] = substrate: CON-S gp120 with the N362 glycosylation site (HIV-1 (group M consensus))
[4] = substrate: CON-S gp120 (HIV-1 (group M consensus)); assay: ELISA; direct ELISA: HIV-1 envelope protein (2 ug/mL) in sodium bicarbonate buffer coated on 384-well plates overnight at 4 C; serially diluted antibodies 90 min; detected with HRP anti-IgG Fc; titres as area under the log-transformed curve (log AUC)

B1: DH846.1 Fab (Fab, V domains shown)
VH: QLQLQESGPGLVKPSETLSLTCDVSGVSISSNYGWGWIRQPPGKGLDWIVTIYGGTGNTYYAPSLEGRVAISKDASKNQFSLRLNSVTAADTAVYYCARKITYSSGWYYFDYWGQGVLVAVSS
VL: EIVMTQSPATLSLSPGERATLSCRASQSVSSRLAWYQQKPGQAPRLLIYDASNRATGIPDRFSGSGSGTEFTLTISGLEPEDVAVYFCQEDHNWSTFGQGTKVEIK
stoichiometry N (Fabs per trimer) [1]: 2 and 3

B2: DH845.1 Fab (Fab, V domains shown)
VH: QVQLQESGPGLVKPSETLSLTCAVSGGSMSSVYQGWGWIRQPPGKGLEWIATTYTSTGNIYYNPSLKGRGTVSRDTSKNQFSLKLSAVTAADTAVYYCARLNLGDSGDYTGVSEYFDFWGQGALVTVSS
VL: AIQLTQSPSALSASVGDRVTISCRASQNIYSNLAWYQQKPGKAPKLLIFGASRLQSGIPSRFSGSGSGTDFTLTISSLQPEDSATYYCQQVYSNFYSFGQGTKVEIK
stoichiometry N (Fabs per trimer) [1]: 2 and 3

B3: DH842 Fab (Fab, V domains shown)
VH: QVQLQESGPGLMQPAETLSLTCAVSRDSIGSGYYAWGWFRQVPGKGLEWIVTIYTSTGNIYDESPLKSRVTISRDTSKNQFSLKLTSVTPADTAVYFCAREGCNTVFCSAGWFDVWGPGLLVTVSS
VL: QAVLTQPTALSASPGASARLTCTLRSGISVADYRIFWYQQRPGSPPRYLLNYRTDSDHHQGSGVPSRFSGSKDDSANTGFLVISGLQSEDEADYHCMIRHNTAYIFGGGTRLTLL
percent of analyzed Envs with one Fab bound [1]: 34%
percent of analyzed Envs with two Fabs bound [1]: 53%

B4: DH840.1 IgG (antibody, V domains shown)
VH: QVQLKESGPGLVRPSETLSLTCAVSGTSINSAYAWGWVRLPPGKGLEWIMTVYTSTGNTYSDPSLKSRVTISKDTSKNQFSLRLSSVTVEDTAVYFCARADGSDSGWPHFDNWGQGLLVTVSS
VL: EIMVTQSPATLSVSPGERATLSCRASQSVRNRIAWYQQKPGQSPRLLIYDASIRAPGIPDRLSGSGSGTEFTLTINSLEPSDVAVYFCQLEANWLTFGGGTKVEIK
maximum percent neutralization of wild-type CON-S pseudovirus (TZM-bl cells) [2]: 83%
maximum percent neutralization of CON-S pseudovirus with the N362 glycan (TZM-bl cells) [3]: 45%

B5: DH840.1 Fab (Fab, V domains shown)
VH: QVQLKESGPGLVRPSETLSLTCAVSGTSINSAYAWGWVRLPPGKGLEWIMTVYTSTGNTYSDPSLKSRVTISKDTSKNQFSLRLSSVTVEDTAVYFCARADGSDSGWPHFDNWGQGLLVTVSS
VL: EIMVTQSPATLSVSPGERATLSCRASQSVRNRIAWYQQKPGQSPRLLIYDASIRAPGIPDRLSGSGSGTEFTLTINSLEPSDVAVYFCQLEANWLTFGGGTKVEIK
percent of trimers bound by Fab [1]: 33%
stoichiometry N (Fab per trimer) [1]: 1

B6: DH840.1 W100bA (antibody, V domains shown)
VH: QVQLKESGPGLVRPSETLSLTCAVSGTSINSAYAWGWVRLPPGKGLEWIMTVYTSTGNTYSDPSLKSRVTISKDTSKNQFSLRLSSVTVEDTAVYFCARADGSDSGAPHFDNWGQGLLVTVSS
VL: EIMVTQSPATLSVSPGERATLSCRASQSVRNRIAWYQQKPGQSPRLLIYDASIRAPGIPDRLSGSGSGTEFTLTINSLEPSDVAVYFCQLEANWLTFGGGTKVEIK
percent reduction of binding against wild-type DH840.1 [4]: 64%
